Experimental data published in publication PMC7954662 (Science (New York, N.Y.), 2020).

Molecular target: Human GCGR (Q27-F477) with N-terminal FLAG and C-terminal octahistidine tag (human, UniProt P47871 27-477)
Test: cryo-EM structure

Chain of Human GCGR (Q27-F477) with N-terminal FLAG and C-terminal octahistidine tag (P47871 27-477): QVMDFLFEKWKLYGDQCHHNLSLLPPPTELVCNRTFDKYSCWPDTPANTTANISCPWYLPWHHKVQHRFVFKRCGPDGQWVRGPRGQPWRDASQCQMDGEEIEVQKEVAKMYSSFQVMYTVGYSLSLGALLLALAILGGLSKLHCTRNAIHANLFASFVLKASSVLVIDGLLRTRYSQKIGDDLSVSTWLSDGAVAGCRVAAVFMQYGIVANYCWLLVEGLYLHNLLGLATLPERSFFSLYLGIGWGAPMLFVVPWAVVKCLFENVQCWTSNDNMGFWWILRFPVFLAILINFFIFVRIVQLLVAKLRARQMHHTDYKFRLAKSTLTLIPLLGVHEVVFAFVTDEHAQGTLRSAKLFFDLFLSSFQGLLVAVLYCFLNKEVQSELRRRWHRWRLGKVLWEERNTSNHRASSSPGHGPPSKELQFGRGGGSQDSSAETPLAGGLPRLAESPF

B1: Gαs (human, short splice variant), subunit of the Gs heterotrimer (natural protein)
chain: MGCLGNSKTEDQRNEEKAQREANKKIEKQLQKDKQVYRATHRLLLLGAGESGKSTIVKQMRILHVNGFNGDSEKATKVQDIKNNLKEAIETIVAAMSNLVPPVELANPENQFRVDYILSVMNVPDFDFPPEFYEHAKALWEDEGVRACYERSNEYQLIDCAQYFLDKIDVIKQADYVPSDQDLLRCRVLTSGIFETKFQVDKVNFHMFDVGGQRDERRKWIQCFNDVTAIIFVVASSSYNMVIREDNQTNRLQEALNLFKSIWNNRWLRTISVILFLNKQDLLAEKVLAGKSKIEDYFPEFARYTTPEDATPEPGEDPRVTRAKYFIRDEFLRISTASGDGRHYCYPHFTCAVDTENIRRVFNDCRDIIQRMHLRQYELL
B1: binds.
